A short description of this data set: label from the status in PepcDB records.
With “MDKLNKITVPASQKLRQLQKMVHDIKNNEGGIMDKIKKLKVKGPPSVPRRDYALDSPADEEEQWSDDFDSDYENPDEHSDSEMYVMPAEETGDDSYEPPPAEQQTRVVHPALPFTRGEYVDNRSSQRHSPPFSKTLPSKPSWPSAKARLASTLPAPNSLQKPQVPPKPKDLLEDEADYVVPVEDNDENYIHPRESSPPPAEKAPMVNRSTKPNSSSKHMSPPGTVAGRNSGVWDSKSSLPAAPSPLPRAGKKPATPLKTTPVPPLPNASNVCEEKPVPAERHRGSSHRQDTVQSPVFPPTQKPVHQKPVPLPRFPEAGSPAADGPFHSFPFNSTFADQEAELLGKPWYAGACDRKSAEEALHRSNKDGSFLIRKSSGHDSKQPYTLVAFFNKRVYNIPVRFIEATKQYALGKKKNGEEYFGSVVEIVNSHQHNPLVLIDSQNNTKDSTRLKYAVKVS”, the protein production result is “not failed”.

As for “MKRANIVKLIVDKKTHEKLKELAIATAKCWNEVNWLRMQQFKKGERVDFSKTEKDVYEKYKQILKVNTQQVARKNAEDWRSFFSLIEEKKEGKLPRWFKPRPPGYWKDKIGKYKLIIIIRKDRYEVNEEKRIIYLKDFKLSLSFKGKLKWHGEQGRLEIIYNEARRIWYAHIPVEVQNDVKAEGKLKASIDLGIVNLATVYVEDGSWYIFKGGSVLSQYEYYSKRISIVQKTLARHKQRRSRKMKLLYEKRKRFLKHALNSMVRKIMEELKKKGVSKLIIGYPKEISKDHGNKLTVNFWNYGYIIRRFEEVGEELGIEVVEVDEAWTSKSCSLCGEAHHRGRIKRGLYRCPRMGKVINADLNGAINILHIPESLGAGSGGQLPVRDRGNGLKAQPAVYRWSNGVGWVSSPTSYEVMKMKAVNRKPMNRPKGTLAL”, the protein production result is recorded as “failed”.

Regarding “MTVDEWRLLDVSTAFGSGENSVPDFGESADDDAVVVWLVKGEEAVEKLSEIVFGVNLVLENHLKHGLSEI”, the protein production result is given as “failed”.

“MTNLKLFNFEGSKVRTVILDEEPFFVGIDVASILGYSNPQKAMRDHCKKPAESLVNDSLGRPRRTLVLSESDVYRLVLRSDLPSAEKFENWLMDEVLPSIRKHGAYMTDDTIEKAITDPDFLIRLATNLKEEKSKRLEAEQKIEAQRPKVLFADAVSDTEGTILIRDLAKLIQQNGVDIGEKRLFEWLRQNGYLISRRGTDYNRPTQKSMELGLFKIKETAIMRSSGAHTAITAKVTGKGQLYFVNKFLEQSLVAN”: the protein production result is given as “failed”. With “MDGSEDDPTIFSARCLPSDPRLWATVTNSYLGTRVYHDTIHINGVYNGAVGDTHRASLPSPLNVQLEAPAGTEQLTETFTLDTNTGSFLHTLEGPSFRASQRIYAHRVLPHVLVFSVSIARLTTGNKPITVPLRADFSPESPDLDLRVGPDFQGLRYLHGHVLNPEQPGEPQQEVHMLWMPVPPALTLGEEEKDRTWEFLTVVGSSQAEAQDCFAEALQLQTRGVLYTIHADSWGRLWAGCGLDVAGPLALRQALRGSLYYLFSELPQPGTQGFISHGLSPGGLSNGSKEECYWGHIFWDQDIWMFPNILMFHPEAARAILEYRVRTLGGALKNGQNLGYQGAKFAWESASTGLEVCPEDIYGTQEIHINGAVALAFQLYYYYTQDSKLFQEDGGWDVVSSVAEFWCSRVEWSSQDKMYHLKGVMPPDEYHSGVNNSVYTNVLVQNSLHFAAALAKDLGLPIRKQWLEVADRIKIPFDSEQNFHPEFDGYERGEEVKQADVVLLGYPVPFPLTPDIRRKNLETYEAVTSPQGPAMTWSMFAVGWMELRDPSRAQVHLSRSFANVTEPFKVWTENADGSGAVNFLTGMGGFLQAALFGCTGFRITEAGVTFDPLCPDLVSRVSVSGISYLGNKINFAFSKDSVTLEVTARAEPWAPLLEAELWPSLAHLPLTPGQKVSFPHSAGRIQRSSP”, the protein production result was “failed”. In the case of “MMAVESSKRLASETPVSLFIPYSHHITDTIISTKNAEYLSIWKIDGRSHQSASEEDIFQWARELNNTLRGIASANLSLWTHIVRRRVYEYPDSTFDKMFCYQLDEKYRQSFTGYNLMVNDLYLTVVFQPIADKVMSFFSQHERETLDQKKMRQESCIKALNDINRTLGQSFKRYGGELLGTYEKNGHAYSSALEFLAMLVNGEYSPMPICRDRFADYMSINRPFFSKWGALGELRTTSGIRRFGMMEIKEYDTTTKPGQFNVLLESDFEFVLTQSFSVLSRHAAKDYLQRHQRNLIDARDVATSQIEQIDEALNQLISGHFVMGEHHCTLTIYGDTVQQVRDYMAKANAALLEVAVLPKPVDLAIEAGYWAQLPANWKWRPRPAPITSLNFLSFSSFHNFMSGKPTGNPWGPAVTILKTISKTPLYFNFHASKLEEDATDKRLLGNTAIIGQSGSGKTVLLGFLLAQAQKFKPTTVVFDKDRGMEIAIRAMGGRYLTFKPGRQSGFNPFQLPPTQDNLTFLKQFVKKLAEASSEITHRDEEEINQAVMSIMSSNINPSLRRLSFLLQFLPNPHLNDYNSHPSVHTRLIKWCEGGDYGWLFDNPTDALDLSTHQIYGFDITEFLDNPETRTPVMMYLLYRTEGMISGQRFMYIFDEFWKPLQDPYFEDLAKNKQKTIRKQNGIFVFATQEPTDALESNIAKTLIQQCATYIFLANPKANYEDYTEGFKLTDAEFELIKGIGEFSRQFLIKQGDQSALAELNLGKFHVTIDGKTVEQNFSDELLVLSGTPDNAELVENIIAEVGDDPALWLPVFLQHIKTNRRTT”, the protein production entry is listed as “failed”.

“MRIGIISVGPGNIMNLYRGVKRASENFEDVSIELVESPRNDLYDLLFIPGVGHFGEGMRRLRENDLIDFVRKHVEDERYVVGVCLGMQLLFEESEEAPGVKGLSLIEGNVVKLRSRRLPHMGWNEVIFKDTFPNGYYYFVHTYRAVCEEEHVLGTTEYDGEIFPSAVRKGRILGFQFHPEKSSKIGRKLLEKVIECSLSRR”: the protein production result was “not failed”. For the sequence “MGQNQFRWSNEQLREHVEVIDGTRSPHIVLRNATYLNSYIREWMQANIWIYDDRIIYVGEKLPEQLHECEVIDCDGKYVVPSYIEPHAHPYQLYNPETLANHAMQFGTTTFINDNLTLFFTLKRELEHHHHHH”, the protein production result is “failed”. For “MTRNGHERAKPLRPGDPTELGAYRIVGRLGRGGMGTVYLGKDTAERLVAIKLIRPDLSEDPAFRQRFAREVAAARRVARFSTAAVLDAQLEGDPLFIVSEYVAGPNLAEAIQADGPMYGGTLESLAMGVAAALTAIHGAGVIHRDLKPANVLLSSVGPKVIDFGIARALDDDTAVTRSSQLMGTPAYLAPELIAGEPPTPMSDIFSWGCLVAYAGTGRAPFDAPTVPAVLHQIVAGQPNLSGLDPALRELVESALDKFPDNRPTAQQLLSRLVGQEEMSLDAVHETVVRSWTPPATSRPEAVPSGPNPAAVPAQVGAAAAAPPTQPGTTPPGGQPSATPSAGHPGATPPAGQPAAAPPFPEHSPQTPPWAAPTPPGGNGTEQKTRGTRFSPAIAIAGGSAVALLAGAVIGGLVLFRSPEVPEGMQVYADDFTHQDGWAGYDFDPENTFSWSGYYQGGYALSADGDTRTSTVSVAPPAGLPEQVRVSATTQVVSGPDYGTYGLHCFYNDDGDNVTYYSATVRVDGSAAQIRRHGGEQGSTHLEEVTAKPVSGFLTPSRDAEEAPVNTFDFTCELDPEADTVTLNLWLNGEHVLEAVDTNPLPYDGEDAPQAGMLAGRGIGGGDNIVVVFDDFAVYQLDGGQRERS”, the protein production result is given as “failed”.

Take “MHTALINHIRKFIFLTDEDAGTLSAFFQLKKVRKKETLLKTGEICRINYFVVKGCLRLFFIDEKGIEQTTQFAIENWWLSDYMAFQKQQPADFYIQSVENCELLSITYTEQENLFERIPALERYFRLVYQKSFAAAQLRSKFQHMYSKEEQYHNFSSRFPEFIQRVPQYLLASYLGFTPEYLSEIRKKYIS”: the protein production entry is on record as “not failed”. Consider “MKRLLLCLIVIAQTILSLTAQTTEELSRMQTLIDHMAYTEALAWADSCSLQDEQALHLRAKALSELGRHPEAFAVYQRIVRMDPHDAVAYRLGAALQVDMQDYATAAEMLHQGYERTSDIPTGYDLAKLLVHIGQDSTALVITDRILRQDSLPPVIRLRAKALNKRQQPSQAIALLEEQMLRDSTDFLTLIDLATLYGQVEETRRQEQVTARYLQTDSLNVAVLLAHAESMMMLQEADSALHDYERIIGRGHFPTSFKDLFYCGLAYYKTGRWAVAEECFRRADESAFQQNYLTKYYLGMCAYRQKLWEEAEKRLQKLLDLIEPKTDRLTDVHTMLGRCANEQGRTETAISHLRYAIEYDSGNSEACLLLAQCFEKTGNRTGAIHMYRRVLDKERASTAKNDIEGFRRLAEARSRLSLLKADDSEDEETP”, for which the protein production result is recorded as “failed”. As for “MDIVTLKDFYASVLGKRVQETLCGQLNLCWPDLTGKRVMGFGYALPYLSALRMRAQQCLAFMPAGQGALPWPCADKVATALVFEEDLPLPDASIDCILLIHALEYTENSFETLNEIWRVLVPNGQLIVIVPNRSGLWARNACTPFGYGEPYSRQQIVRLFEKTHFVSGSIQEVVHYMPSSGSVSRFFSFFYEPVARHLLPYFGGLLICQAQKRVYQGLEHHHHHH”, the protein production entry is on record as “failed”. Take “MSIPNGGSHQSLEALLAAYDFRLRHEPRNCTLWNNRGILLERLNRWTEALASYNCALEITPQRQEALNNRAIVLEHLGRLPEAVESYEQALAIDRQQPEVWNNRGIVLRKLGRLEDAIASYQQAIALAAHYAQAWANCGFALWQQGRYREAVRHYEQSVAIDPDQSSAWRQLGQIYLSVDQPDQALRCLDQAIALQPQQATAWTWRGHALYNLGQYAAALTSYENAELLGDRPLLLSIQRGHTLAQLERYEEALASYAAILPQLTGEAAAEVAYYQGLVWAYLQDWTAALAAFDQAIAGNPDLAEAWYNRAALHARLDQPVAAIADLQQAIALDPDTYRSLAAEDPDYQTLHAHPDWIQLQRA”: the protein production entry is “failed”.

On to “MRGGSLWQLGQSITRRLAQSDKKVVSRRYFASEADLKKTALYDFHVAHGGKMVPFAGWSMPIQYKDSIMDSTVNCRENGSLFDVAHMCGLSLKGKDCVPFLETLVVADVAGLAPGTGSLTVFTNEKGGAIDDSVITKVTDEHIYLVVNAGCRDKDLAHIEEHMKAFKSKGGDVSWHIHDERSLLALQGPLAAPVLQHLTKEDLSKLYFGNFQILDINGSTCFLTRTGYTGEDGFEISVPDEHAVDLAKAILEKSEGKVRLTGLGARDSLRLEAGLCLYGNDMEQHISPVEAGLTWAIGKRRRAEGGFLGADVILQQLKDGPTIRRVGFFSSGPPARSHSEVHDESGNKIGEITSGGFSPNLKKNIAMGYVKSGQHKTGTKVKILVRGKPYEGSITKMPFVATKYYKPT”, for which the protein production entry is given as “failed”.

As to “MKTVRCSILGFGAIGQGVAEVLLMKKEYLESIGLEIIVVAVVDSRGATINPEGVDLADCLARKRTTGTVAIEKITGVEVIKSIDHDLVIETTPTNIVTGGAGLQNMFAAFEIGKDVITSNKGPLTLKYRELMEAAKVAGSSFRFEATVGGSMPIINLANEVLAGNRLKSIKGILNGTCNYILTRMLEERASYKDILAESMELGIAETDPTYDVDGIDTACKLVILANAIFGLNATYKDVEVTGITKITPEALEMAYERGHVIKLIGEVSRERIHVAPRLVPINHPLDVRGTLNVASIDTELAGEITVTGKGAGPVETASAILSDLIAIYGNQLEHHHHHH”, the protein production result is recorded as “not failed”.

As for “MILGIDVGGTSVKFGLVTPEGEIQNATRFMTADWVNGIGFVESMKLEIGNFLKQYPIVKGVGIGWPGLVSLDRTKVILLPNIPSVVNVPIVEILRSEFPHIHFKIENDAKCAALGEYYFGENKRMQTFILLALGTGVGSGVMMNGKLFIGGRGNGTEVGHMLTTRGKSLENQVGINHLIAYTHEQLALDVAKKSSLHTIAELSPKVIADHAAQGDALALAVWADIGTIIGESLVNIVRVMDLNNILLGGGISGAFDYFVPNLKKAMLEHLPTYYTDDMYIGKATLENDAGLLGAAGLIMEAI”, the protein production result is listed as “not failed”.
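Note: failed if final PepcDB status was selected cloned or expressed and not failed if soluble or beyond.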
